Test results as given in patent US12037395 (IMMVIRA, dated 2024).

Legend:
[1] = target: T1, human PD-1 on PD-1 Effector Cell Line (Genscript, GS-J2/PD-1) (human, UniProt Q15116 25-288); test: cell-based or functional assay
[2] = target: T2, recombinant human PD-1-his (Sino biological, #10377-H08H) (human, UniProt Q15116 25-167); test: SPR (Biacore T200), antibody captured, antigen flowed
T2 construct: Bought protein; also called Human PD-1-his protein; not shown: his tag
Description: (§1) Briefly, goat […] (GE healthcare, Cat #BR100839, Human Antibody Capture Kit) was covalently linked to a CM5 chip (carboxy methyl dextran coated chip) via primary amines, using a standard amine coupling kit (GE healthcare, Pittsburgh, PA, USA) provided by Biacore. Unreacted moieties on the biosensor surface were blocked with ethanolamine. […] Then, recombinant human PD-1-his (Sino biological, #10377-H08H) or cynomolgus monkey PD-1-his protein (Acro biosystems, #PD-1-C5223) in HBS EP buffer (provided by Biacore) was flowed onto the chip at a flow rate of 30 μL/min. The antigen-antibody association kinetics was followed for 2 minutes and the dissociation kinetics was followed for 10 minutes. The association and dissociation curves were fit to a 1:1 *Langmuir* binding model using BIA evaluation software.

[3] = target: T3, cynomolgus monkey PD-1-his protein (Acro biosystems, #PD-1-C5223) (cynomolgus monkey, UniProt B0LAJ3 25-170); test: as above
T3 construct: Bought protein; also called Cynomolgus PD-1; Cynomolgus PD1
Description: as §1

[4] = target: T4, biotin-labeled human PD-1 Fc protein (human, biotin-labeled (sites not given)); test: competition ELISA: blocks biotin PD-1-Fc binding to coated PD-L1-Fc
T4 construct: also called PD-1-Fc-biotin
Procedure: (§2) The next day, plates were washed with wash buffer (PBS+0.05% Tween-20, PBST), and blocked with 5% non-fatty milk in PBST for 2 hours at 37° C. Plates were then washed again using wash buffer.
(§3) After incubation at 37° C. for 40 minutes, plates were washed for 4 times using wash buffer. […] Plates were washed again using wash buffer. Finally, TMB was added and the reaction was stopped using 1M H_2SO_4, and the absorbance was read at 450 nm. Data were analyzed using Graphpad Prism software and $IC50$ values were reported.

[5] = target: T4, biotin-labeled human PD-1 Fc protein; test: capture ELISA: antibody captured by anti-IgG Fc, biotin PD-1-Fc 60 nM
[6] = target: T4, biotin-labeled human PD-1 Fc protein; test: competition ELISA: blocks biotin PD-1-Fc binding to coated Nivolumab (competitor); partial blocking
Procedure: (§4) The next day, plates were washed with wash buffer, and blocked with 5% non-fatty milk in PBST for 2 hours at 37° C. […] Plates were finally washed using wash buffer. TMB was added and the reaction was stopped using 1M H_2SO_4, and the absorbance was read at 450 nm. Data were analyzed using Graphpad Prism software and $IC50$ values were reported.

[7] = target: T2, recombinant human PD-1-his (Sino …); test: SPR (Biacore) as in Example 2
[8] = target: T2, recombinant human PD-1-his (Sino …); test: SPR (Biacore)
[9] = target: T3, cynomolgus monkey PD-1-his protein …; test: SPR (Biacore)
[10] = target: T1, human PD-1 on PD-1 Effector Cell Line …; test: cell-based or functional assay; remark: listed apart in the source
[11] = target: T4, biotin-labeled human PD-1 Fc protein; test: binding capture ELISA, biotin PD-1-Fc
[12] = target: T4, biotin-labeled human PD-1 Fc protein; test: PD1/PDL1 ligand blocking ELISA (coated PD-L1-Fc)
[13] = target: T4, biotin-labeled human PD-1 Fc protein; test: benchmark blocking ELISA (coated Nivolumab as competitor)
Procedure: as §4

[14] = target: T4, biotin-labeled human PD-1 Fc protein; test: binding capture ELISA (goat anti-human IgG Fab capture), biotin PD-1-Fc
[15] = target: T4, biotin-labeled human PD-1 Fc protein; test: capture binding ELISA, biotin PD-1-Fc
[16] = target: T4, biotin-labeled human PD-1 Fc protein; test: PD1/PDL1 ligand blocking ELISA (coated PD-L1-Fc); remark: listed apart in the source
Procedure: as §2, §3

[17] = target: T4, biotin-labeled human PD-1 Fc protein; test: benchmark blocking ELISA (coated Nivolumab, self-competition)
[18] = target: T4, biotin-labeled human PD-1 Fc protein; test: as above; remark: listed apart in the source
[19] = target: T4, biotin-labeled human PD-1 Fc protein; test: competition ELISA: blocks biotin PD-1-Fc binding to coated Nivolumab (self-competition)

B1: mouse anti-PD-1 monoclonal antibody 2G2 (antibody, mouse IgG1, kappa, V domains shown)
VH: EVQLVESGGDLVKPGGSLKLSCTASGFTFSYYGMSWVRQTPDKRLEWVATISSGSSFTYSPDSVKGRFTISRDNAKNTLYLQMNSLKSEDTAIYYCTRREGIYDASWDYSMDYWGQGTSVTVSS
VL: DVLMTQTPLSLPVSLGDQASISCRSSQSIIRSNGNTYLEWYLQKPGQSPKLLIYKVSNRFSGVPDRFSGSGSGTDFTLKISRVEADDLGLYYCFQGSHVPWTFGGGTKLEIKR
notes: Purified from hybridoma; Constant regions tied only generically to 'mouse antibodies'; also called Clone 2G2
[1]
  Reporter Activation (EC50, nM) human PD-1 cell (NFAT-luc)/human PD-L1 cell: 17.9 nM
[2]
  Kd: 2.68 nM
  koff: 0.000436 s⁻¹
  kon: 163000 M⁻¹ s⁻¹
[3]
  Kd: 13 nM
  koff: 0.00183 s⁻¹
  kon: 140000 M⁻¹ s⁻¹
[4]
  IC50: 0.32 nM
[5]
  EC50: 0.18 nM
[6]
  IC50: 14.4 nM

B2: humanized anti-PD-1 antibody huC1E1-V3 (antibody, human IgG1, kappa, V domains shown)
VH: EVQLVESGGGVVQPGRSLRLSCAASGFTFSSYLMSWVRQAPGKGLEWVATISGGGGDTYFPDSVKGRFTISRDNSKNTLYLQMNSLRAEDTAVYYCVRFGGAGYYWYFDVWGAGTLVTVSS
VL: EIVLTQSPATLSLSPGERATLSCRASKSVDDSGISFMHWYQQKPGQPPRLLIYAASNQGSGVPARFSGSGSGTDFTLTISSLEPEDFAVYFCHQTKEVPWTFGQGTKVEIKR
notes: Human IgG1/kappa, expressed in 293F cells
[7]
  Kd: 4.52 nM

B3: humanized anti-PD-1 antibody huC1E1-V4 (antibody, human IgG1, kappa, V domains shown)
VH: EVQLVESGGGVVQPGRSLRLSCAASGFTFSSYLMSWVRQAPGKGLEWVATISGGGGDTYFPDSVKGRFTISRDNSKNTLYLQMNSLRAEDTAVYYCVRFGGAGYYWYFDVWGAGTLVTVSS
VL: EIVLTQSPATLSLSPGERATLSCRASKSVDDSGISFMHWFQQKPGQAPRLLIYAASNQGSGVPARFSGSGSGTDFTLTISSLEPEDFAVYFCHQTKEVPWTFGQGTKVEIKR
notes: as for B2
[7]
  Kd: 2.95 nM

B4: humanized anti-PD-1 antibody huC1E1-V5 (antibody, human IgG1, kappa, V domains shown)
VH: EVQLVESGGGVVQPGRSLRLSCAASGFTFSSYLMSWVRQAPGKGLEWVATISGGGGDTYFPDSVKGRFTISRDNSKNTLYLQMNSLRAEDTAVYYCVRFGGAGYYWYFDVWGAGTLVTVSS
VL: EIVLTQSPATLSLSPGERATLSCRASKSVDDSGISFMHWFQQKPGQPPRLLIYAASNQGSGIPARFSGSGSGTDFTLTISSLEPEDFAVYFCHQTKEVPWTFGQGTKVEIKR
notes: as for B2
[7]
  Kd: 3.37 nM

B5: humanized anti-PD-1 antibody huC1E1-V6 (antibody, human IgG1, kappa, V domains shown)
VH: EVQLVESGGGVVQPGRSLRLSCAASGFTFSSYLMSWVRQAPGKGLEWVATISGGGGDTYFPDSVKGRFTISRDNSKNTLYLQMNSLRAEDTAVYYCVRFGGAGYYWYFDVWGAGTLVTVSS
VL: EIVLTQSPATLSLSPGERATLSCRASKSVDDSGISFMHWFQQKPGQPPRLLIYAASNQGSGVPARFSGSGSGTDFTLTISSLEPEDFAVYYCHQTKEVPWTFGQGTKVEIKR
notes: as for B2
[7]
  Kd: 3.05 nM

B6: humanized anti-PD-1 antibody huC1E1-V7 (antibody, human IgG1, kappa)
heavy: not shown
light: EIVLTQSPATLSLSPGERATLSCRASKSVDDSGISFMHWYQQKPGQAPRLLIYAASNQGSGIPARFSGSGSGTDFTLTISSLEPEDFAVYYCHQTKEVPWTFGQGTKVEIKRTVAAPSVFIFPPSDEQLKSGTASVVCLLNNFYPREAKVQWKVDNALQSGNSQESVTEQDSKDSTYSLSSTLTLSKADYEKHKVYACEVTHQGLSSPVTKSFNRGEC
notes: as for B2
[7]
  Kd: 6.36 nM

B7: humanized anti-PD-1 antibody huC1E1-V10 (antibody, human IgG1, kappa)
heavy: not shown
light: EIVLTQSPATLSLSPGERATLSCRASKSVDDSGISFMHWYQQKPGQAPRLLIYAASNQGSGIPARFSGSGSGTDFTLTISSLEPEDFAVYYCHQTKEVPWTFGQGTKVEIKRTVAAPSVFIFPPSDEQLKSGTASVVCLLNNFYPREAKVQWKVDNALQSGNSQESVTEQDSKDSTYSLSSTLTLSKADYEKHKVYACEVTHQGLSSPVTKSFNRGEC
notes: as for B2
[8]
  Kd: 0.968 nM
[9]
  Kd: 0.892 nM
[10]
  Cell-based reporter assay (EC50, nM): 11.3 nM
[7]
  Kd: 0.968 nM
[11]
  EC50: 0.34 nM
[12]
  IC50: 0.88 nM
[13]
  IC50: 0.35 nM
[14]
  EC50: 0.44 nM

B8: Nivolumab (OPDIVO®) (antibody, V domains shown)
VH: QVQLVESGGGVVQPGRSLRLDCKASGITFSNSGMHWVRQAPGKGLEWVAVIWYDGSKRYYADSVKGRFTISRDNSKNTLFLQMNSLRAEDTAVYYCATNDDYWGQGTLVTVSS
VL: EIVLTQSPATLSLSPGERATLSCRASQSVSSYLAWYQQKPGQAPRLLIYDASNRATGIPARFSGSGSGTDFTLTISSLEPEDFAVYYCQQSSNWPRTFGQGTKVEIK
[15]
  EC50: 0.37 nM
[11]
  EC50: 0.37 nM
[16]
  IC50: 0.41 nM
[12]
  IC50: 0.41 nM
[17]
  IC50: 0.38 nM
[18]
  IC50: 0.38 nM
[5]
  EC50: 0.21 nM
[19]
  IC50: 3.79 nM
